# Data: paper PMC4558368
# Target: Extracellular region of FcγRIIIa (residues 19-193, V158 allotype) (UniProt P08637)
# Assay: SPR
row,Substance,Kd [µM]
1,Human IgG1 Fc D265A (glycosylated variant) (domain or fragment),> 50
2,Human IgG1 Fc T299A (aglycosylated variant) (domain or fragment),> 50
